We go through two proteins from paper PMC3092513 (Enzyme Research, 2011).

Substrate in data set [1]: O=C(O)C(=O)C[C@@H](O)[C@H](O)[C@H](O)COP(=O)(O)O
The experiment in a line: purified protein. The format is biochemical, Escherichia coli. As to conditions: 25 °C, pH 6.8.

Data set [2] deals with the molecule itself. Nature of the data set: SEC; Superdex S200 HR 10/300; 10 mM BTP, 10 μM EDTA, 50 mM KCl, pH 6.8; partially purified protein at ≤10 mg/mL; mass estimated from a standard curve of five proteins; dimer of the enzyme.
Substrate in data set [3]: O=C(O)C(=O)C[C@@H](O)[C@H](O)[C@H](O)COP(=O)(O)O
Nature of the data set: purified protein. As to conditions: 60 °C, pH 6.8, 50 mM BTP, 10 μM EDTA, 100 μM ZnCl2, 29 μM NAD+, 56 nM enzyme. The format is biochemical, Pyrococcus furiosus.

B1: EcoDHQS (Escherichia coli K-12) (protein)
chain: MERIVVTLGERSYPITIASGLFNEPASFLPLKSGEQVMLVTNETLAPLYLDKVRGVLEQAGVNVDSVILPDGEQYKSLAVLDTVFTALLQKPHGRDTTLVALGGGVVGDLTGFAAASYQRGVRFIQVPTTLLSQVDSSVGGKTAVNHPLGKNMIGAFYQPASVVVDLDCLKTLPPRELASGLAEVIKYGIILDGAFFNWLEENLDALLRLDGPAMAYCIRRCCELKAEVVAADERETGLRALLNLGHTFGHAIEAEMGYGNWLHGEAVAAGMVMAARTSERLGQFSSAETQRIITLLKRAGLPVNGPREMSAQAYLPHMLRDKKVLAGEMRLILPLAIGKSEVRSGVSHELVLNAIADCQSA
notes: recombinant, overexpressed in E. coli RB791 from plasmid of J. R. Coggins; ammonium sulfate and anion exchange; no tag mentioned
What is called Km is the concentration of substrate that gives half-maximal velocity. For orientation: kcat means the number of substrate molecules converted per active site and unit of time at saturation. In general, kcat/Km refers to the turnover number divided by the Michaelis constant. For the protein B1, in “purified protein [1]”, the Michaelis constant (Km) is 6.3 ± 0.2 µM, the kcat worked out at 16 ± 0.2 s⁻¹ and the kcat/Km stood at 2.5e+06 M⁻¹ s⁻¹.

B2: Pyrococcus furiosus dehydroquinate synthase (enzyme, UniProt Q8U0A8 1-335, looked up)
chain: MEGIIFGDLSTLPDLLSSLSPYKVVVLTNTTLKELWLEEVLTWLKEFKPQTIVVPDGEKYKDLDTVRYIWEKLLEMGFTRRSLLIGLGGGVITDIAGFVASTYMRGTYLGLVPTTLLAQVDAAIGGKTGINFYGKNIIGTFYLPKFVLICRDFLKTLPMVEILNGLAEVVKYGILDKEVYNAIKTMNSPREIVEREDIIKKSVAVKLRIVEEDLKENGKRRVLNLGHTVGHAIEKISDYKIKHGFAVSMGLVVEAKIGEILYGFDSGKVVEILTKFGLPVKIPFDPYTTLQAMKIDKKAWYGKIVIVVPVEIGKANIEEVDEKIILQALEEAKNA
The term stoichiometry N denotes a count of units in the complex or per binding partner. Turning to B2, the “stoichiometry N” value in data set [2] was 2. Besides, in the data set “purified protein [3]”, the Km amounted to 3.7 ± 0.2 µM, the catalytic constant (kcat) is 3 ± 0.1 s⁻¹ and the kcat/Km stood at 800000 M⁻¹ s⁻¹.
